Laboratory results from patent publication EP3473709B1, “DNA VECTOR CONTAINING A GENE ENCODING AN EQUINE BUTYRYLCHOLINESTERASE, FOR TRANSFORMATION AND INTEGRATION INTO LEISHMANIA TARENTOLAE CHROMOSOME” (priority 2017, dated 2019).

How the values were obtained:
CCCC(=O)SCC[N+](C)(C)C = test: purified protein, by the assay type; details: pH 7.4; 25.0 °C
[1] = molecular target: recombinant equine BChE (butyrylcholinesterase), truncated version devoid of the tetramerization domain, GA-BChE-His, Seq.2, expressed in Leishmania tarentolae (Equus caballus, UniProt Q9N1N9); test: Ellman's method enzymatic activity test (hydrolysis of S-butyrylthiocholine iodide, DTNB, absorbance at 412 nm)

| Compound | Km (CCCC(=O)SCC[N+](C)(C)C) [µM] | BChE activity in the presence of different concentrations of methylene blue [1] |
| --- | --- | --- |
| recombinant equine BChE (butyrylcholinesterase), truncated version devoid of the tetramerization domain, GA-BChE-His, Seq.2, expressed in Leishmania tarentolae T7-TR (Equus caballus) | 20 |  |
| CN(C)c1ccc2nc3ccc(=[N+](C)C)cc-3sc2c1 [methylene blue] |  | inhibited |
